For one substance, Kd results are on record in publication PMC2995063.

Common to all, as to assay: protection of ribosome-bound eEF2 from [14C]ADP-ribosylation by diphtheria toxin
Assay [1] concerns the target Salt washed yeast 80S ribosomes with ribosomal protein L3 K236A (yeast (S. cerevisiae)) (UniProt P14126).
Assay [2] addresses Salt washed yeast 80S ribosomes with ribosomal protein L3 K236A/K237A (yeast (S. cerevisiae)) (UniProt P14126).
Assay [3] has as its target Salt washed yeast 80S ribosomes with ribosomal protein L3 K236A/R247A (yeast (S. cerevisiae)) (UniProt P14126).
In assay [4] the target is Salt washed yeast 80S ribosomes with ribosomal protein L3 K237A (yeast (S. cerevisiae)) (UniProt P14126).
In assay [5] the target is Salt washed yeast 80S ribosomes with ribosomal protein L3 K241A/R244A (yeast (S. cerevisiae)) (UniProt P14126).
Assay [6] concerns the target Salt washed yeast 80S ribosomes with ribosomal protein L3 R232A (yeast (S. cerevisiae)) (UniProt P14126).
Assay [7] has as its target Salt washed yeast 80S ribosomes with ribosomal protein L3 R247A (yeast (S. cerevisiae)) (UniProt P14126).
Assay [8] has as its target Salt washed yeast 80S ribosomes with wild-type ribosomal protein L3 (yeast (S. cerevisiae)) (UniProt P14126).

The term Kd denotes a measure of binding affinity in units of concentration. Regarding “Eukaryotic elongation factor 2 (eEF2), 6xHis-tagged (from UniProt P32324 1-842) (natural protein)”, the Kd in assay [1] stood at 312 nM; in assay [2] it was 84 nM; in assay [3], 110 nM; in assay [4], 342 nM; in assay [5] it was 229 nM; in assay [6], 341 nM. Besides, the Kd amounted to 46.6 nM in assay [7] and 383 nM in assay [8].
